The values below are quoted from earlier work in article PMC9792189.

In this data set the target is SARS-CoV-2 S1/RBD (target in cited aptamer papers) (SARS-CoV-2) (UniProt P0DTC2). Briefly: SPR. In general terms: In SPR one partner is held on a chip, and binding of the other changes the refractive index at the surface.

Usually Kd stands for the free concentration of one partner at which half of the binding sites on the other are occupied at equilibrium, for simple one-to-one binding. Take GGGGTGGGGTAGTGGTATGGAGCG [XN-268s]: the equilibrium dissociation constant (Kd) is 4.26 nM.

Regarding “TTCCGGTTAATTTATGCTCTACCCGTCCACCTACCGGAATTTTTTTTTTTTTTTTTTTTTTTTTTTTTTACGGGTTTGGCGTCGGGCCTGGCGGGGGGATAGTGCGGT [DSA1N5]”, the Kd was 0.51 nM.

For the sequence “AAAGCCACAACGAGCTCGGGTGAAAGCAGTCCGTTGAGTAGGCTTGCGGCTGCGTGGCATATCGATT [SSapt1]”, the equilibrium dissociation constant (Kd) was 105 nM.

On to “ATTACCGATGGCTTGTTTGTAATGTAGGGTTCCGTCGGAT [Aptamer-2]”, for which the Kd is 27 nM.

As to “TTCCGGTTAATTTATGCTCTACCCGTCCACCTACCGGAA [MSA1T]”, the Kd was 2.8 nM.

“CAGCACCGACCTTGTGCTTTGGGAGTGCTGGTCCAAGGGCGTTAATGGACA [CoV2-RBD-1C]”: the Kd was 3.1 nM.

Turning to “TCGAGTGGCTTGTTTGTAATGTAGGGTTCCGGTCGTGGGT [Aptamer-1]”, the Kd is 28 nM.

As for “ACGGGTTTGGCGTCGGGCCTGGCGGGGGGATAGTGCGGT [MSA5T]”, the dissociation constant Kd is 10.1 nM.
